# Experimental data from patent publication US20150337053A1.
# pKd: −log10 of the molar value.
# How the values were obtained:
# human FcγRI (human) [1] = target: human FcγRI (human) (UniProt P12314); assay: SPR (Biacore 3000), His-tagged receptor captured on anti-His IgG, antibody injected; 1:1 kinetic fit
# [2] = target: human FcγRIIa (Example 1, allotype not stated) (human) (UniProt P12318); assay: SPR (Biacore 3000), His-tagged receptor captured on anti-His IgG, antibody injected; steady state fit
# human FcγRI (human) [3] = target: human FcγRI (human) (UniProt P12314); assay: as above
# [4] = target: human FcγRIIIa (Example 1) (human) (UniProt P08637); assay: as above
# [5] = target: human FcγRIIIa (Example 1) (human) (UniProt P08637); assay: SPR (Biacore 3000), His-tagged receptor captured on anti-His IgG, antibody injected; 1:1 kinetic fit
# human FcγRIIa (Example 1, allotype not stated) (human), sequence (P12318 36-218 limits assumed): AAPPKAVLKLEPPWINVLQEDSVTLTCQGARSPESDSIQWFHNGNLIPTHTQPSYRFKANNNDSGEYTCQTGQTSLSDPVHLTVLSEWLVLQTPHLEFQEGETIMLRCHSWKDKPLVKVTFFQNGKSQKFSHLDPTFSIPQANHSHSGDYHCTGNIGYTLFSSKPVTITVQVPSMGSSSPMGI
# human FcγRI (human), sequence (P12314 16-288 limits assumed): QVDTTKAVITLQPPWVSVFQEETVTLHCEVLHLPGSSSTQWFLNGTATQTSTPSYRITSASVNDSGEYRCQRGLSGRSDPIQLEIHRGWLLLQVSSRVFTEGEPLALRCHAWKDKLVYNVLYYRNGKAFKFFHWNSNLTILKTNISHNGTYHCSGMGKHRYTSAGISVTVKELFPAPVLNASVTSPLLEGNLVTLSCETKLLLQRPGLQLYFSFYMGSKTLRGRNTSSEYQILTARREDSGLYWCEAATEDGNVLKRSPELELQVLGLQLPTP
# human FcγRIIIa (Example 1) (human), sequence (P08637 17-208 F176V limits assumed): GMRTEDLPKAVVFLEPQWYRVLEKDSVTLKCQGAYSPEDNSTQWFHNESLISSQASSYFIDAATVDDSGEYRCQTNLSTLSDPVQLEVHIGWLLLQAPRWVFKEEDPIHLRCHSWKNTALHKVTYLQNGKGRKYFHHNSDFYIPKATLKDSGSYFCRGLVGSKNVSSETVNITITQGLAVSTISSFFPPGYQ
Substance,pKd (human FcγRI (human) [1]),pKd [2],pKd (human FcγRI (human) [3]),pKd [4],pKd [5]
"huIgG1 (wild type human IgG1 isotype, anti-Her2/neu construct) (antibody)",7.89,6.15,–,–,–
"huIgG1-Ag (aglycosylated IgG1, N297A) (antibody)",–,< 3.77,5.43,< 4.02,–
"huIgG2 (wild type human IgG2 isotype, anti-Her2/neu construct) (antibody)",–,6.00,3.92,4.39,–
"huIgG2c4a (H268A, V309L, A330S, P331S) (antibody)",–,5.66,3.80,4.07,–
"huIgG2c4b (V234A, G237A, H268Q, V309L, A330S, P331S) (antibody)",–,3.77,4.42,< 4.02,–
"huIgG2c4c (V234A, G237A, H268A, V309L, A330S, P331S) (antibody)",7.36,4.72,–,–,6.19
"huIgG2c4d (V234A, G237A, P238S, H268A, V309L, A330S, P331S) (antibody)",–,< 3.77,< 3.68,< 4.02,–
"huIgG2c4e (P233S, V234A, G237A, P238S, H268A, V309L, A330S, P331S) (antibody)",–,< 3.77,< 3.68,< 4.02,–
"huIgG2m4 (H268Q, V309L, A330S, P331S) (antibody)",–,5.57,3.68,4.02,–
"huIgG4 Ala-Ala, Ser-Pro (S228P, F234A, L235A) (antibody)",–,3.82,4.82,4.26,–
